Reference: paper PMC8309162, “Identification and Functional Characterization of Genes Encoding Phenylacetaldehyde Reductases That Catalyze the Last Step in the Biosynthesis of Hydroxytyrosol in Olive” (Plants, 2021)

System: T1, O=CCc1ccc(O)c(O)c1
T1 construct: tag cleavage not mentioned
Experiment: HPLC quantification of hydroxytyrosol formed
Assay type: biochemical, Olea europaea
Settings: 0.25-8 mM substrate, Michaelis-Menten, standard assay 5 mM NADPH, 50 mM Tris-HCl pH 8.0, 30 °C (pH of the kinetic run not stated; optimum pH 6.5)

OePAR1.1 (Olea europaea), sequence (chain, as listed by the source): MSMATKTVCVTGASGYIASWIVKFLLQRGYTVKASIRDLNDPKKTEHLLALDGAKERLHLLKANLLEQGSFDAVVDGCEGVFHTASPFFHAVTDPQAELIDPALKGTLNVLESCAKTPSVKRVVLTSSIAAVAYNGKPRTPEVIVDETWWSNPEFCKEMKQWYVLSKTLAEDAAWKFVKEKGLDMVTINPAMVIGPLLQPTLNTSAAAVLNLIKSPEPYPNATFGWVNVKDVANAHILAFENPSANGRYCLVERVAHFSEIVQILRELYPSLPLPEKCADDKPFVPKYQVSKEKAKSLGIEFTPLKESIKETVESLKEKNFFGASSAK
OePAR1.2 (Olea europaea), sequence (chain, as listed by the source): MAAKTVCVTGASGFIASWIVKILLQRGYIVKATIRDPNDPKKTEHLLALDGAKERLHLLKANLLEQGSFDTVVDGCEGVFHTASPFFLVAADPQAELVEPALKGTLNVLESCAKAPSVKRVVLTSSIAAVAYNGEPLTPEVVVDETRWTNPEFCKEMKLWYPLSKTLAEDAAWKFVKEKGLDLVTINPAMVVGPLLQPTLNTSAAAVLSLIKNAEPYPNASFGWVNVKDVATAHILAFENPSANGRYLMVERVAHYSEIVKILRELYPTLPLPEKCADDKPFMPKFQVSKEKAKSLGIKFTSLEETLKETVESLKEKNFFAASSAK

For OePAR1.2 (Olea europaea), the Km was 800 µM.
For OePAR1.1 (Olea europaea), the Km was 600 µM.
